Measured values: the supplement of paper PMC10065799, “High-throughput profiling of sequence recognition by tyrosine kinases and SH2 domains using bacterial peptide display” (eLife, 2023)

What was measured:
[1] = biological target: Fyn (UniProt P06241); assay: phosphorylation enrichment, bacterial display (enrichment ratio); higher = better substrate or ligand; peptides without Tyr show the background
[2] = biological target: EPHB2 (UniProt P29323); assay: as above
[3] = biological target: FGFR3 (UniProt P22607); assay: as above
Chain of FGFR3 (P22607 whole entry, looked up): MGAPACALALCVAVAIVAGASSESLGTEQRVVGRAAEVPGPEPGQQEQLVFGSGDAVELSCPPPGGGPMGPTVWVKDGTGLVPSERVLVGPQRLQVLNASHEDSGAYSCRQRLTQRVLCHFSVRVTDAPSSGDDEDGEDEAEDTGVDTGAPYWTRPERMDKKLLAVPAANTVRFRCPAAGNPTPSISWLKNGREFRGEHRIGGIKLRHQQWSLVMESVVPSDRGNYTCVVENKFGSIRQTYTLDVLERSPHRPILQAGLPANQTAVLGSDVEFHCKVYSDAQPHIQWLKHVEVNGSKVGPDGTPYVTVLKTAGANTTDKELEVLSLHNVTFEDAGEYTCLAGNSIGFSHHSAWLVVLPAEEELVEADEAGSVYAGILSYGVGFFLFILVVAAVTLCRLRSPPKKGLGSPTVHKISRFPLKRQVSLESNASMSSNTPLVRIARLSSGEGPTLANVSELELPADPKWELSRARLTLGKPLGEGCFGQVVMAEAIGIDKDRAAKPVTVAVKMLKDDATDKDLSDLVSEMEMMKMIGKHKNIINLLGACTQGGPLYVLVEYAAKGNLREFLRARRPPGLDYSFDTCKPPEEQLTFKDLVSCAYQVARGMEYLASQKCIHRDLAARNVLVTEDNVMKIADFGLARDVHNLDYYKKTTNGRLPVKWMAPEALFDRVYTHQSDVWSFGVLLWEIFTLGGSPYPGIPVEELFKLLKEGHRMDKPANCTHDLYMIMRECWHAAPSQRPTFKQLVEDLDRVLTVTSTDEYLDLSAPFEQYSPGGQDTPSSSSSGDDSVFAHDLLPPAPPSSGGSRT

[4] = biological target: Jak2 (UniProt O60674); assay: as above
[5] = test system: Fer (mouse); assay: as above
[6] = test system: AncSZ; assay: as above
[7] = test system: c-Src; assay: as above
[8] = biological target: Hck (UniProt P08631); assay: as above
Chain of Hck (P08631 whole entry, looked up): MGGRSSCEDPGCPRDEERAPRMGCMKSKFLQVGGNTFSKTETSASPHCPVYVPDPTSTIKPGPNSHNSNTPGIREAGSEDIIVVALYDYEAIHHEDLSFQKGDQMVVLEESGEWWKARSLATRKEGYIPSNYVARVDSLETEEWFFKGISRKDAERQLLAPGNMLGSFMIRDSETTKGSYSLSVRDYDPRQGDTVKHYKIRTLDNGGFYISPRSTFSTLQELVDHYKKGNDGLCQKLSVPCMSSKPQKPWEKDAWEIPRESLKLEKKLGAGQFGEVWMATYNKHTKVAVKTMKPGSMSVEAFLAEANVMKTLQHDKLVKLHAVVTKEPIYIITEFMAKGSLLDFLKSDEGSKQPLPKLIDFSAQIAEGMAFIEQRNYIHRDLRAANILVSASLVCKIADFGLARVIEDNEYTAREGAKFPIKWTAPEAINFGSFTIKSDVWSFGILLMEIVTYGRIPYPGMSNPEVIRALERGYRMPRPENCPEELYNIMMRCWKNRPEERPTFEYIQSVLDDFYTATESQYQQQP

[9] = biological target: FGFR1 (UniProt P11362); assay: as above
Chain of FGFR1 (P11362 whole entry, looked up): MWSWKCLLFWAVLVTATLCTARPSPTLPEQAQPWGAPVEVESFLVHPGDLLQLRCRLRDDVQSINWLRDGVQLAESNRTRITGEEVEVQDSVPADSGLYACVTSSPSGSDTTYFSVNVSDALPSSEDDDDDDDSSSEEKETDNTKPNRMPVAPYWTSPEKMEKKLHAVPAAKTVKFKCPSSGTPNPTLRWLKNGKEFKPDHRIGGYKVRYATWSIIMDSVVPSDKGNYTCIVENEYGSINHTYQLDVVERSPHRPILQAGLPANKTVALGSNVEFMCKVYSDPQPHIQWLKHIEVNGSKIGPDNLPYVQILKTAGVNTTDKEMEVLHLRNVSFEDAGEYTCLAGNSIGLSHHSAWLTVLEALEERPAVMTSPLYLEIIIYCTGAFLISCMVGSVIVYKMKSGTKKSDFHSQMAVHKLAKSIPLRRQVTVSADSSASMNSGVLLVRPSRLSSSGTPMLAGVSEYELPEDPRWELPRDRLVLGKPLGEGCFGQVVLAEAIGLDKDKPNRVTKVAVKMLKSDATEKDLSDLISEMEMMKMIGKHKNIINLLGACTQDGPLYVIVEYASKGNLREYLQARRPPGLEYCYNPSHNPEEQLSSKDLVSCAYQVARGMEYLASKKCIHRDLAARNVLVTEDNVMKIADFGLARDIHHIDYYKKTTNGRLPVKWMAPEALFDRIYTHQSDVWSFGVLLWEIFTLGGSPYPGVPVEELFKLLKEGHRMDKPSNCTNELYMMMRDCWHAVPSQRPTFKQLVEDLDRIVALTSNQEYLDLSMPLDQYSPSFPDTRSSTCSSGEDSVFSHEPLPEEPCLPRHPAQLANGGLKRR

[10] = biological target: Fes (UniProt P07332); assay: as above
[11] = test system: c-Abl (mouse); assay: as above
[12] = biological target: MERTK (UniProt Q12866); assay: as above
Chain of MERTK (Q12866 whole entry, looked up): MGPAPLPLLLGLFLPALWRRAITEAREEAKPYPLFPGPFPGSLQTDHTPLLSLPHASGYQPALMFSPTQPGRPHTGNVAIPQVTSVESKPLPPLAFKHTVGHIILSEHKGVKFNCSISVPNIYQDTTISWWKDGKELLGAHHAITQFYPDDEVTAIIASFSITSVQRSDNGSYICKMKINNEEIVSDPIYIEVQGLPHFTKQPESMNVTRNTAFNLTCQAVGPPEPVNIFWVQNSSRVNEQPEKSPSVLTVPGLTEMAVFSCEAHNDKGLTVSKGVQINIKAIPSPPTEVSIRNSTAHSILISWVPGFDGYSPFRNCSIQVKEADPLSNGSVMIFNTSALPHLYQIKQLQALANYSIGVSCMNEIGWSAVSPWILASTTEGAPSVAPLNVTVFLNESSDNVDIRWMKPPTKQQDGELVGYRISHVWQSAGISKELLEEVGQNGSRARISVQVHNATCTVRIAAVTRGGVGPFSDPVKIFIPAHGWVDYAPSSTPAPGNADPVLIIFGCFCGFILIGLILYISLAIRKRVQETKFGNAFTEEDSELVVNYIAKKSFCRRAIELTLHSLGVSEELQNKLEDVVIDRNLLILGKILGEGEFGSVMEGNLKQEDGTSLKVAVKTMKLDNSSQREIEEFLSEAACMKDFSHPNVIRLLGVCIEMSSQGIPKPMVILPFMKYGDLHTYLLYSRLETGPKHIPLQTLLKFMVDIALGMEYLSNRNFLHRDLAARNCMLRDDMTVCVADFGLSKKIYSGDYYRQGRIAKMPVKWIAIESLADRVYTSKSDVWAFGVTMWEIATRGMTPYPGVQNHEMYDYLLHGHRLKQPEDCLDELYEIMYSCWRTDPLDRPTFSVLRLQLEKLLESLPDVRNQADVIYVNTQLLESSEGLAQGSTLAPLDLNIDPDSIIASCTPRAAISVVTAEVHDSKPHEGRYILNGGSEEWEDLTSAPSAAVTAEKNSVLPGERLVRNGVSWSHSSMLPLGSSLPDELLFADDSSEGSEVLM

[13] = biological target: EPHB1 (UniProt P54762); assay: as above
[14] = biological target: Grb2 SH2 (UniProt P62993); assay: SH2 binding enrichment of the phosphorylated peptide, bacterial display (enrichment ratio); higher = better substrate or ligand; peptides without Tyr show the background
Chain of Grb2 SH2 (P62993 whole entry, looked up): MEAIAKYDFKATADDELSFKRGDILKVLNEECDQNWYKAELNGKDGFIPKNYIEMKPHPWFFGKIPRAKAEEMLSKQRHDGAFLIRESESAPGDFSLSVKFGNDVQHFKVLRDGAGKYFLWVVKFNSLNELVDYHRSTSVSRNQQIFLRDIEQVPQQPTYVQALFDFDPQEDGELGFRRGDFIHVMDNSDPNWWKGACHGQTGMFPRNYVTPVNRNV

[15] = biological target: c-Src SH2; assay: as above
[16] = biological target: SHP2-C SH2; assay: as above
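For SH2 binding enrichment of the phosphorylated peptide, bacterial display in this document: peptide library displayed on the E. coli surface as eCPX fusions, selected cells deep-sequenced, score is each peptide's frequency after selection divided by its frequency in the input.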
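For phosphorylation enrichment, bacterial display in this document: 11-residue human phosphosite peptides and single-mutation variants displayed on the E. coli surface, counted by deep sequencing, each peptide's frequency after selection divided by its frequency in the unselected input library; frequency after pTyr selection over input frequency; kinase dosed for 20-30% of maximal phosphorylation in three min.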

Chain of Fyn (P06241 whole entry, looked up): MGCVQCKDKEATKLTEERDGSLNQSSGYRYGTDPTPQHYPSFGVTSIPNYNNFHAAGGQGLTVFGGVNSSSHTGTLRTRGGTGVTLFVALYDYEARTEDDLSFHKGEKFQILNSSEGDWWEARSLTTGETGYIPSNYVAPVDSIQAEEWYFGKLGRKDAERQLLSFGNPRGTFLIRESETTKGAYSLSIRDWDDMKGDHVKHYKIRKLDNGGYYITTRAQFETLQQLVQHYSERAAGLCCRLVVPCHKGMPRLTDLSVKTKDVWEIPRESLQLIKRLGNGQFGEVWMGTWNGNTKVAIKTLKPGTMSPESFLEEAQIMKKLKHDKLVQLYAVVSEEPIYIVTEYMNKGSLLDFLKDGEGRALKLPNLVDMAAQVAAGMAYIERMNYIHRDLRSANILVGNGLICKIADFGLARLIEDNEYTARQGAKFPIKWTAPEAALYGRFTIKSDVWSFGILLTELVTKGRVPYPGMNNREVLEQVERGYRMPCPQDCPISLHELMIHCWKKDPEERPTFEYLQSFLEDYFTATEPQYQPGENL
Chain of EPHB2 (P29323 whole entry, looked up): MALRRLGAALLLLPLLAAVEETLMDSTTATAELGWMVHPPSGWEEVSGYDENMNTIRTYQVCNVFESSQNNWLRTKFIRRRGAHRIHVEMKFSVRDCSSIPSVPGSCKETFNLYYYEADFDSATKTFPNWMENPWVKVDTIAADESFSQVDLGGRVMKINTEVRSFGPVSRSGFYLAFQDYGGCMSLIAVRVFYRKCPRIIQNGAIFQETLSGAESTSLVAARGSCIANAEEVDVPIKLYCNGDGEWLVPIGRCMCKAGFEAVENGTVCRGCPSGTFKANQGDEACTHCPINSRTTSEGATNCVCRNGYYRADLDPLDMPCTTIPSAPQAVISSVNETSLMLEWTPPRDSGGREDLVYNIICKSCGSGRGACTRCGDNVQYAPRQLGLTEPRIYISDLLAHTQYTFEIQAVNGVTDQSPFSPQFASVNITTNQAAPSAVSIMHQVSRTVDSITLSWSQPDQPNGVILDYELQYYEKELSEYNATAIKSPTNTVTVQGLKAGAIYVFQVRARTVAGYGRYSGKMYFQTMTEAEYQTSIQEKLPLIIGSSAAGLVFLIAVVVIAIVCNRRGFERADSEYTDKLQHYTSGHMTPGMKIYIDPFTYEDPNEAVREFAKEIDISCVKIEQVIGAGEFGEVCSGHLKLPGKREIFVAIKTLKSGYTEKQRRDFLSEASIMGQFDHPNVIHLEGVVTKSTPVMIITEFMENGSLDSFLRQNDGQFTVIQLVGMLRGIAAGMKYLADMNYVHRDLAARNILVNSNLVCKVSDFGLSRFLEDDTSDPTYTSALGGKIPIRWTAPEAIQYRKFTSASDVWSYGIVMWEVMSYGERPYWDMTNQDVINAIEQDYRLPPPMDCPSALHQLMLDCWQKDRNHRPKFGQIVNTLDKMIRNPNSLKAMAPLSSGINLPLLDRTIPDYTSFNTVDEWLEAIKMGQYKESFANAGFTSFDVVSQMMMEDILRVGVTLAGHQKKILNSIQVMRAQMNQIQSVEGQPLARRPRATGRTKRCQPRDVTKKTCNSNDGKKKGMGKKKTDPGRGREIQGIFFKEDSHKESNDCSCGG

Row | Sequence | phosphorylation enrichment [1] | phosphorylation enrichment [2] | phosphorylation enrichment [3] | phosphorylation enrichment [4] | phosphorylation enrichment [5] | phosphorylation enrichment [6] | phosphorylation enrichment [7] | phosphorylation enrichment [8] | phosphorylation enrichment [9] | phosphorylation enrichment [10] | phosphorylation enrichment [11] | phosphorylation enrichment [12] | phosphorylation enrichment [13] | SH2 binding enrichment [14] | SH2 binding enrichment [15] | SH2 binding enrichment [16]
1 | QRKPSYNQLAS [BRCA2_Y71] | 0.399 | 0.53 | 0.642 | 0.598 | 0.244 | 0.449 | 0.415 | 0.345 | 0.543 | 0.53 | 0.471 | 0.392 | 0.344 | 1.59 | 1.06 | 1.14
2 | QRKRAYVEIEF [MAK16_Y282_YF] | 0.655 | 0.594 | 0.785 | 0.723 | 0.48 | 0.926 | 0.63 | 0.398 | 0.617 | 1.42 | 0.631 | 0.643 | 0.838 | 1.55 | 3.17 | 2.48
3 | QRKRAYVEIEY [MAK16_Y282] | 0.585 | 0.463 | 0.663 | 0.73 | 0.441 | 0.696 | 0.68 | 0.672 | 0.623 | 0.752 | 2.01 | 0.416 | 0.362 | 0.675 | 4.61 | 0.718
4 | QRRFVYFFSFL [PTEN_Y176_YF] | 0.656 | 0.61 | 0.908 | 1.15 | 1.91 | 1.6 | 0.567 | 0.57 | 0.573 | 1.46 | 1.12 | 0.618 | 0.563 | 1.13 | 0.642 | 0.821
5 | QTPVLYAMLDH [MPZ_Y220] | 5.21 | 8.88 | 2.84 | 0.845 | 9.39 | 0.853 | 4.54 | 7.14 | 3.44 | 1.02 | 2.67 | 10.7 | 10.7 | 0.837 | 0.922 | 2.71
6 | QWRTKYEMDAI [MYH7_Y1375_T1377M] | 0.773 | 0.4 | 0.843 | 0.519 | 0.365 | 1.12 | 0.344 | 0.561 | 0.58 | 0.964 | 0.5 | 0.384 | 0.479 | 0.891 | 0.549 | 0.522
7 | QWRTKYETDTI [MYH7_Y1375_A1379T] | 0.489 | 0.797 | 0.757 | 1.56 | 0.5 | 0.819 | 0.56 | 0.624 | 0.473 | 1.49 | 0.798 | 0.414 | 0.616 | 0.769 | 0.485 | 0.735
8 | RALCHYYKLNI [ETV6_Y401_R399C] | 0.947 | 1.16 | 5.19 | 6.35 | 1.29 | 1.88 | 2.63 | 1.59 | 9.12 | 1.99 | 2.78 | 3.95 | 1.09 | 1.74 | 1.45 | 1.23
9 | RAYSWYQHQRA [NDST1_Y714] | 0.242 | 0.716 | 0.792 | 1.06 | 0.641 | 1.03 | 0.527 | 0.582 | 0.472 | 1.16 | 0.964 | 0.619 | 0.538 | 1.58 | 1.18 | 1.79
10 | REDIFYTSKLW [AKR1C2_Y81] | 0.692 | 0.796 | 1.01 | 0.947 | 0.543 | 1.07 | 0.438 | 0.77 | 0.592 | 1.12 | 0.607 | 0.645 | 0.978 | 1.04 | 0.598 | 0.838
11 | REQREYLDQLN [CCDC88B_Y1277] | 0.624 | 0.663 | 0.66 | 0.578 | 0.532 | 0.917 | 0.521 | 0.604 | 0.693 | 0.984 | 2.21 | 0.433 | 0.666 | 0.589 | 0.425 | 0.47
12 | REVVNYVQKRN [RMI1_Y450] | 0.541 | 0.595 | 0.521 | 0.598 | 0.554 | 0.931 | 0.582 | 0.696 | 0.36 | 1.08 | 0.975 | 0.869 | 0.622 | 1.1 | 0.632 | 0.787
13 | RFLERDIYNRE [HLA-DPB1_Y57_Y57D] | 5.19 | 1.48 | 2.92 | 0.764 | 1.85 | 2.71 | 1.8 | 10.7 | 1.18 | 2.16 | 0.787 | 1.26 | 1.74 | 1.08 | 0.877 | 0.882
14 | RFLERYIFNRQ [HLA-DPB1_Y57_E62Q_YF] | 0.535 | 0.29 | 0.642 | 1.71 | 0.75 | 1.57 | 0.893 | 0.678 | 0.448 | 1.63 | 1.36 | 0.756 | 0.603 | 0.901 | 0.577 | 0.833
15 | RFLERYIYNPE [HLA-DPB1_Y57_R61P] | 1.75 | 0.675 | 0.671 | 0.935 | 0.636 | 1.1 | 3.08 | 2.11 | 0.55 | 1.15 | 0.68 | 1.5 | 0.755 | 1.17 | 0.966 | 1.28
16 | RFLRGYQQDAF [HLA-A_Y137_R138Q_YF] | 0.685 | 0.518 | 0.677 | 0.965 | 0.518 | 1.11 | 0.603 | 0.693 | 0.803 | 0.684 | 0.81 | 0.558 | 0.796 | 0.58 | 0.374 | 0.581
17 | RFVTRSIFNRE [HLA-DQB1_Y62_Y62S_YF] | 0.498 | 0.718 | 0.711 | 0.723 | 0.652 | 1.14 | 0.578 | 0.632 | 0.472 | 0.827 | 0.402 | 0.577 | 0.61 | 0.72 | 0.39 | 0.588

Row | Sequence | phosphorylation enrichment [1] | phosphorylation enrichment [2] | phosphorylation enrichment [3] | phosphorylation enrichment [4] | phosphorylation enrichment [5] | phosphorylation enrichment [6] | phosphorylation enrichment [7] | phosphorylation enrichment [8] | phosphorylation enrichment [9] | phosphorylation enrichment [10] | phosphorylation enrichment [11] | phosphorylation enrichment [12] | phosphorylation enrichment [13] | SH2 binding enrichment [14] | SH2 binding enrichment [15] | SH2 binding enrichment [16]
18 | RGNMFYENSFA [EGFR_Y113_YF] | 0.997 | 0.663 | 0.744 | 1.01 | 2.57 | 1.21 | 0.922 | 0.479 | 0.785 | 0.836 | 0.533 | 0.727 | 0.483 | 18.9 | 3.16 | 1.26
19 | RHCSGYVLIAM [EFR3A_Y73_R70C] | 0.376 | 0.403 | 0.669 | 0.846 | 0.501 | 0.885 | 0.517 | 0.472 | 0.596 | 0.879 | 0.575 | 0.268 | 0.51 | 1.01 | 1.05 | 1.05
20 | RIGRKYKKVRF [F8_Y442] | 0.36 | 0.511 | 0.364 | 0.432 | 0.298 | 0.47 | 0.385 | 0.356 | 0.352 | 0.341 | 0.298 | 0.351 | 0.338 | 0.488 | 0.254 | 0.275
21 | RKEAQYMLENE [SLC16A6_Y224] | 0.642 | 0.523 | 0.827 | 1.22 | 0.445 | 1.52 | 0.899 | 0.803 | 0.503 | 1.32 | 0.997 | 0.619 | 0.605 | 0.8 | 0.703 | 0.791
22 | RLAKTYKTTLE [ALB_Y377_E378K] | 0.253 | 0.509 | 0.446 | 0.72 | 0.624 | 0.564 | 0.441 | 0.388 | 0.513 | 0.632 | 1.18 | 0.365 | 0.324 | 1.01 | 0.672 | 0.669
23 | RLGDLYEEEMR [VIM_Y150] | 0.487 | 0.691 | 0.487 | 0.938 | 0.377 | 0.72 | 0.425 | 0.379 | 0.48 | 1.14 | 0.585 | 0.335 | 0.615 | 0.876 | 0.848 | 0.567
24 | RLGNQHVNVMN [SLC3A1_Y461_Y461H] | 0.627 | 0.612 | 0.691 | 1.09 | 0.504 | 0.793 | 0.717 | 0.505 | 0.567 | 1.09 | 0.947 | 0.53 | 0.694 | 0.987 | 0.429 | 0.762
25 | RLLVVYHWTQR [HBD_Y36_P37H] | 0.46 | 0.514 | 0.75 | 1.17 | 0.659 | 1.42 | 0.566 | 0.85 | 0.458 | 1.58 | 1.32 | 0.666 | 0.785 | 1.49 | 1.27 | 1.27
26 | RLQEDYDHSYY [ESD_Y258_G257D] | 0.824 | 0.811 | 1.03 | 1.56 | 0.572 | 1.78 | 1.06 | 0.781 | 0.923 | 1.55 | 0.943 | 0.754 | 0.814 | 0.932 | 1.16 | 0.741
27 | RLVTRYIYNRE [HLA-DQB1_Y62_Y58L] | 0.673 | 0.481 | 0.739 | 0.493 | 0.408 | 0.697 | 0.532 | 0.424 | 0.86 | 0.822 | 0.447 | 0.507 | 0.443 | 0.836 | 0.39 | 0.906
28 | RMDGKYACSFT [FLNB_Y704_T703K_YF] | 0.756 | 0.977 | 1.45 | 0.929 | 0.701 | 1.38 | 0.491 | 0.964 | 1.1 | 1.28 | 0.902 | 0.589 | 0.882 | 0.935 | 0.566 | 0.638
29 | RMDGKYACSYT [FLNB_Y704_T703K] | 0.418 | 0.471 | 0.518 | 0.722 | 0.635 | 0.899 | 0.664 | 0.541 | 0.528 | 1.02 | 0.79 | 0.484 | 0.437 | 0.997 | 0.878 | 0.863
30 | RNPLRYTSILT [OR51B6_Y130_S126N] | 0.532 | 0.482 | 0.738 | 0.892 | 0.474 | 0.689 | 0.65 | 0.498 | 0.582 | 0.794 | 0.697 | 0.484 | 0.478 | 1.86 | 3.12 | 3.4
31 | RPQDGFRIVQH [PTPRT_Y1329_Y1329F] | 0.597 | 0.426 | 0.45 | 0.561 | 0.417 | 0.769 | 0.483 | 0.532 | 0.43 | 0.838 | 0.836 | 0.52 | 0.62 | 0.766 | 0.586 | 0.734
32 | RPSRQYATRDV [SCAMP3_Y35_L38R] | 0.396 | 0.356 | 0.352 | 0.352 | 0.381 | 0.598 | 0.407 | 0.412 | 0.473 | 0.498 | 0.615 | 0.274 | 0.366 | 0.765 | 0.417 | 0.801
33 | RQGKDYVGAIP [KDR_Y951] | 0.552 | 0.442 | 0.409 | 0.656 | 0.361 | 0.705 | 0.487 | 0.452 | 1.44 | 0.832 | 0.636 | 0.485 | 0.471 | 0.818 | 0.488 | 0.79
